The values below come from patent US20230312735A1 (IMMUNOGEN, published 2023).

This experiment concerns the target T1, human CD123 (interleukin-3 receptor alpha subunit) (human, UniProt P26951 19-378).
T1 construct: Native CD123 on patients' cells; also called IL-3Rα; Interleukine-3 Receptor alpha
The experiment can be described thus: average CD123 receptor saturation on patients' cells after intravenous IMGN632, Schedule A, Cohorts 1-6 (method not described).

T1 sequence (P26951 19-378 limits assumed): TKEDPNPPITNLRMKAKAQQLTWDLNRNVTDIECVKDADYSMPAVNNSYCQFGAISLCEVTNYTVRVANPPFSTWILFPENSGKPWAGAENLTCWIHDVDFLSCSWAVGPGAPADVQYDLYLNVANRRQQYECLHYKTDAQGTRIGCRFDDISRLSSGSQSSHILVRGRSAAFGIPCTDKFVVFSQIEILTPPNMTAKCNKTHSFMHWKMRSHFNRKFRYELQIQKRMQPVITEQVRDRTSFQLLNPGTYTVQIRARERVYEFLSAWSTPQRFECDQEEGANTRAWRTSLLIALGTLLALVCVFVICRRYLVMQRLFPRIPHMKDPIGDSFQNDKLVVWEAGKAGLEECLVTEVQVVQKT

B1: IMGN632 (immunoconjugate of the anti-CD123 huCD123-6Gv4.7 antibody linked to DGN549-C) (antibody, V domains shown)
VH: QVQLVQSGAEVKKPGASVKVSCKASGYIFTSSIMHWVRQAPGQGLEWIGYIKPYNDGTKYNEKFKGRATLTSDRSTSTAYMELSSLRSEDTAVYYCAREGGNDYYDTMDYWGQGTLVTVSS
VL: DIQMTQSPSSLSASVGDRVTITCRASQDINSYLSWFQQKPGKAPKTLIYRVNRLVDGVPSRFSGSGSGNDYTLTISSLQPEDFATYYCLQYDAFPYTFGQGTKVEIKR
modifications: DGN549-C cytotoxic agent (peptide linker) covalently linked through a cysteine residue (huCD123-6Gv7-C442 heavy chain); average of 1.5 to 2.1 DGN549-C per antibody, mostly the sulfonated form
notes: also called anti-CD123 immunoconjugate; G4723A-DGN549-C
For B1, the binding result is “binds”.
